Reference: patent publication US20210403583A1 (ELIXIRON IMMUNOTHERAPEUTICS HONG KONG, published 2021)
Positions count from the first letter of the chain named. Where two headings read alike, the source gives them in different places. Values belong to the binder of their own block, whether it stands above or below them.

Key:
[1] = target: T1, recombinant human CSF1R-His (Biolegend) (human, UniProt P07333 20-512, limits assumed); assay: ELISA, coated human CSF1R-His (monomer)
T1 construct: Bought protein; also called CSF1R-His (monomer); hu-CSF1R; not shown: His tag
T1 sequence (P07333 20-512 limits assumed): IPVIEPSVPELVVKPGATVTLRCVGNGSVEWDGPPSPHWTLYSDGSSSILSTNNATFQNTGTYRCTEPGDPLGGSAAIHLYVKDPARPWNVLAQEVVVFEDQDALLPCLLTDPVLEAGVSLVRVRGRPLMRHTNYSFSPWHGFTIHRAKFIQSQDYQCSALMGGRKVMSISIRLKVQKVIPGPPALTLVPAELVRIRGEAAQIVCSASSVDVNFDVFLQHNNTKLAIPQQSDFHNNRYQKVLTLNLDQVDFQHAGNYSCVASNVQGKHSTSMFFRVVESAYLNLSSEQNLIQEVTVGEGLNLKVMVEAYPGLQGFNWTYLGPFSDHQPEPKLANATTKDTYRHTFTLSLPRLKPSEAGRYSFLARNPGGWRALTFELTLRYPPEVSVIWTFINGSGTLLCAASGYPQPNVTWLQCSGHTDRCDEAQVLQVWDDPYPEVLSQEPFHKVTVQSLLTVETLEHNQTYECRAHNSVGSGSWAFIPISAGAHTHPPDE
Procedure: (§1) Materials and methods: Recombinant human CSF1R-His (Biolegend), or CSF1R-Fc fusion protein were immobilized on 96 well microtiter plate at a concentration of 1 μg/mL in Coating Solution (SeraCare) overnight at 4° C. The wells were washed with wash solution (0.05% Tween20 in imidazole-buffered saline) and blocked with 1% BSA. Hybridoma culture supernatants or serial dilutions of antibodies were added to wells. After incubation at 37° C. for 1 h, the wells were washed with wash solution. Peroxidase-conjugated goat anti-human kappa light chain antibody (Bethyl) was applied to each well at 37° C. for 1 h incubation. After washing, the wells were developed with TMB substrate for 5-10 min at RT and then stopped with 1 N HCl. Thereafter absorbance was measured at 450 nm and 650 nm. The EC₅₀ values were calculated through GraphPad Prism7.

[2] = target: T2, recombinant human CSF1R-Fc fusion protein (human, UniProt P07333 20-512); assay: competition ELISA, coated human CSF1R-Fc, competitor biotinylated CSF1-His 2.5 ug/mL
T2 construct: probably the same protein; also called CSF1R-Fc (dimer); not shown: Fc part
T2 sequence (P07333 20-512 limits assumed): as above
Procedure: Materials and methods: Recombinant human CSF1R-Fc fusion protein was immobilized on 96 well microtiter plate at a concentration of 1 μg/mL in Coating Solution (SeraCare) overnight at 4° C. The wells were washed with wash solution and blocked with 1% BSA at RT. Serial dilutions of the antibodies were added to wells. Then 2.5 ug/mL biotinylated CSF1-His (Biolegend) was added and incubated for 1 h at 37° C. After washing, Streptavidin-HRP (Jackson ImmunoResearch) was applied to wells at RT for 1 h incubation. After washing, the wells were developed with TMB substrate for 5-10 min at RT and the stopped with 1 N HCl. Thereafter absorbance was measured at 450 nm and 650 nm. The IC₅₀ values were calculated through GraphPad Prism7.

[3] = target: T2, recombinant human CSF1R-Fc fusion …; assay: ELISA, coated human CSF1R-Fc (dimer)
Procedure: as §1

[4] = target: T2, recombinant human CSF1R-Fc fusion …; assay: ELISA, coated human CSF1R-Fc (dimer); remark: listed apart in the source
Procedure: (§2) Materials and methods: Recombinant human CSF1R-His (Biolegend), or CSF1R-Fc fusion protein, were immobilized on 96 well microtiter plate at a concentration of 1 μg/mL in Coating Solution (SeraCare) overnight at 4° C. The wells were washed with wash solution (0.05% Tween20 in imidazole-buffered saline) and blocked with 1% BSA. Serial dilutions of the antibodies were added to wells. After incubation at 3TC for 1 h, the wells were washed with wash solution. Peroxidase-conjugated goat anti-human kappa light chain antibody (Bethyl) was applied to each well at 3TC for 1 h incubation. After washing, the wells were developed with TMB substrate for 5-10 min at RT and then stopped with 1 N HCl. Thereafter absorbance was measured at 450 nm and 650 nm. The EC50 values were calculated through GraphPad Prism7.

[5] = target: T3, human CSF1R expressed on cells (293F/huCSF1R stable cells; AML5 cells; human monocytes and macrophages) (human, UniProt P07333 20-972); assay: cell-based or functional assay
[6] = target: T1, recombinant human CSF1R-His (Biolegend); assay: ELISA, coated human CSF1R-His (monomer); remark: listed apart in the source
Procedure: as §2

[7] = target: T2, recombinant human CSF1R-Fc fusion …; assay: ELISA, coated human CSF1R-Fc
Procedure: Materials and methods: Recombinant human CSF1R-Fc, or mouse CSF1R-Fc (Sino Biological) were immobilized on 96 well microtiter plate at a concentration of 1 μg/mL in Coating Solution (SeraCare) overnight at 4° C. The wells were washed with wash solution (0.05% Tween20 in imidazole-buffered saline) and blocked with 1% BSA. Serial dilutions of the anti-CSF1R/IL-10 fusion proteins were added to wells. After incubation at 3TC for 1 h, the wells were washed with wash solution. To detect chimeric Ab/IL10 fusions, peroxidase-conjugated goat anti-human kappa light chain antibody (Bethyl) was applied to each well at 3TC for 1 h incubation. To detect AB98 or AB98/1110 fusions, peroxidase-conjugated Goat anti-mouse IgG Fab antibody (Jackson immunoresearch) was applied to each well at 3TC for 1 h incubation. After washing, the wells were developed with TMB substrate for 5-10 min at RT and then stopped with 1 N HCl. Thereafter absorbance was measured at 450 nm and 650 nm.

[8] = target: T3, human CSF1R expressed on cells …; assay: cell-based or functional assay; remark: listed apart in the source
[9] = target: T4, cynomolgus CSF1R expressed on 293F cells (cynomolgus monkey, UniProt P07333 20-972 (human entry)); assay: flow cytometry titration on 293F cells overexpressing cynomolgus CSF1R, anti-human IgG-Alexa Fluor 647
T4 construct: also called cynoCSF1R
T4 chain: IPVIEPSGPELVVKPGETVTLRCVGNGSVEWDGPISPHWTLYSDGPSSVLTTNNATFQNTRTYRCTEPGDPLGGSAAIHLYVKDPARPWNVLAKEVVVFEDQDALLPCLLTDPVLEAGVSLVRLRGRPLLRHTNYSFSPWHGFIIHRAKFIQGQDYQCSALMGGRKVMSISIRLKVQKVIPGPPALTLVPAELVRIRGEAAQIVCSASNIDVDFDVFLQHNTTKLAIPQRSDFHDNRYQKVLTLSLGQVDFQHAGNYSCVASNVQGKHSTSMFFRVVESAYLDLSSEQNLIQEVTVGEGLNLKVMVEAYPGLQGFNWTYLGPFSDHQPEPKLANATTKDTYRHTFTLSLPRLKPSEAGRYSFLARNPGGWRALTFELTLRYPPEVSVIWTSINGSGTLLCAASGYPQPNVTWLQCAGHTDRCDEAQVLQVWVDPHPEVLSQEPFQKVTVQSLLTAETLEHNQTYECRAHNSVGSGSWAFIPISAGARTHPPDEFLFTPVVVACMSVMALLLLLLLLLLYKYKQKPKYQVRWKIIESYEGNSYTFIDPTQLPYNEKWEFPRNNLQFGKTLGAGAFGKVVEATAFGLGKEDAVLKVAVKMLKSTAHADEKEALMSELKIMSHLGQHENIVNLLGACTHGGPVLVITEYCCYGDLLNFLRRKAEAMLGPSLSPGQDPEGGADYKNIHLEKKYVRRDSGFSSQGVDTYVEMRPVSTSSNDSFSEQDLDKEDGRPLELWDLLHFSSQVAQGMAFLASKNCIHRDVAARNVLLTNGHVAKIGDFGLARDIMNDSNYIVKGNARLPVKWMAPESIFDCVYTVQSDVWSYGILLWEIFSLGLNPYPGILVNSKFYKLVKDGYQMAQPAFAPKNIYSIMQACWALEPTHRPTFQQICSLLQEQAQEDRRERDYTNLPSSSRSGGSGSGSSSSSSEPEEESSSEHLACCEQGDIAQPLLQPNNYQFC
Text: Materials and methods: The gene segments encoding full-length human CSF1R or cynomolgus CSF1R were obtained using Thermo gene synthesis service and cloned in a mammalian expression vector pCDNA3.4. […] After washing with FACS buffer (2%FBS in PBS), the cells were stained with anti-human IgG-Alexa Fluor 647 and analyzed by Attune N×T Flow Cytometer (Thermo Scientific).

[10] = target: T3, human CSF1R expressed on cells …; assay: cell-based or functional assay; remark: listed apart in the source
[11] = target: T3, human CSF1R expressed on cells …; assay: cell-based or functional assay; remark: listed apart in the source
[12] = target: T3, human CSF1R expressed on cells …; assay: cell-based or functional assay; remark: listed apart in the source
[13] = target: T1, recombinant human CSF1R-His (Biolegend); assay: BLI (Octet RED96), antibody captured on AHC biosensor, CSF1R-His in solution, 1:1 model
Procedure: Kinetic rate constants, ka and kd, for binding of 6D4 and 6M6 to CSF1R were measured by Bio-Layer Interferometry (BLI) (ForteBio Octet RED96). The BLI assay was performed using AHC (Anti-hIgG Fc Capture) biosensors (ForteBio) to capture each anti-CSF1R antibody (2 μg/mL) to acquire a 0.5 nm shift and then the biosensors were dipped into varying concentrations (i.e. 0, 0.549, 1.65, 4.94, 14.8, 44.4, 133.3 and 400 nM) of recombinant CSF1R-His protein in running buffer containing PBS-Tween 20 (0.1%), BSA (0.1%). Rate constants were calculated by curve fitting analyses (1:1 Langmuir model) of binding response with a 5-minute association and 15-minute dissociation interaction time.

B2: humanized anti-CSF1R antibody 6M6.hu12 (antibody, human IgG1, kappa)
heavy: not shown
light: DIVLTQSPDSLAVSLGERATINCKASQGVDYAGDSYMNWYQQKPGQPPKLLIYVASDLDSGIPDRFSGSGSGTDFTLTISSLQAEDVATYYCQQSYEDPRTFGGGTTLEIKRTVAAPSVFIFPPSDEQLKSGTASVVCLLNNFYPREAKVQWKVDNALQSGNSQESVTEQDSKDSTYSLSSTLTLSKADYEKHKVYACEVTHQGLSSPVTKSFNRGEC
notes: Humanized version of 6M6; also called 6M6.hul2
EC50 [4]: 61.3 pM
IC50 (M), CSF1-dependent AML5 cell proliferation [5]: 5.46e-10 M
EC50 [6]: 103 pM

B3: humanized anti-CSF1R/IL10 fusion protein 6M6.hu12/IL10 (antibody, human IgG1, kappa)
heavy: not shown
light: B2 light
notes: Antibody-cytokine fusion: human IL10 fused by a linker to the C-terminus of the heavy chain
EC50 [7]: 252 pM
IC50 (M), inhibition of macrophage survival (CSF1-dependent) [8]: 1.49e-10 M
binding result [9]: binds
IC50 (M), inhibition of AML5 cell proliferation (CSF1-dependent) [10]: 1.61e-09 M

B4: humanized anti-CSF1R antibody 6M6.hu41 (antibody, human IgG1, kappa)
heavy: not shown
light: B2 light with I62V
notes: Humanized version of 6M6
EC50 [4]: 65 pM
IC50 (M), CSF1-dependent AML5 cell proliferation [5]: 4.3e-10 M
EC50 [6]: 107 pM

B7: chimeric anti-CSF1R antibody 6D4 (antibody, human IgG1, kappa)
heavy: not shown
light: DIQMNQSPSSLSASLGDTITITCHASQNINVWLSWYQQKPGNIPKLLIYKASNLHTGVPSRFSGSGSGTGFTLTISSLQPEDIATYYCQQGQSYPYTFGGGTKLEIKRTVAAPSVFIFPPSDEQLKSGTASVVCLLNNFYPREAKVQWKVDNALQSGNSQESVTEQDSKDSTYSLSSTLTLSKADYEKHKVYACEVTHQGLSSPVTKSFNRGEC
IC50 (M), CSF1-dependent AML5 cell proliferation [11]: 4.62e-10 M
IC50 (M), IL-34-dependent AML5 cell proliferation [11]: 3.49e-10 M
EC50 [4]: 381 pM
IC50 (M), CSF1-dependent survival of CD14+ monocytes [12]: 5.58e-10 M
IC50 (M), CSF1-dependent survival of macrophages [12]: 1.38e-10 M
IC50 (M), CSF1-dependent AML5 cell proliferation [5]: 4.62e-10 M
EC50 [6]: 531 pM
Kd [13]: 3420 pM
koff [13]: 0.000946 s⁻¹
kon [13]: 277000 M⁻¹ s⁻¹

Further lines, with some results ahead:

EC50 [1]: 531 pM
IC50 [2]: 1760 pM
EC50 [3]: 381 pM
B1: hy6D4 (antibody, V domains shown)
VH: EIQLQQSGAELVKPRASVKISCEASGYSFTGYNMNWVKQSPGKSLEWIGDINPYYGATTYNQKFKGKATLTVDKSSSTAYMQLNSLTSEDSAVYYCARRGDYGDYEGWYFDVWGAGTTVTVSS
VL: DIQMNQSPSSLSASLGDTITITCHASQNINVWLSWYQQKPGNIPKLLIYKASNLHTGVPSRFSGSGSGTGFTLTISSLQPEDIATYYCQQGQSYPYTFGGGTKLEIK
notes: Mouse hybridoma antibody; also called anti-CSF1R antibody purified from hybridoma supernatant hy6D4

EC50 [7]: 205 pM
binding result [9]: binds
IC50 (M), inhibition of AML5 cell proliferation (CSF1-dependent) [10]: 8.93e-10 M
B5: humanized anti-CSF1R/IL10 fusion protein 6M6.hu41/IL10 (antibody, human IgG1, kappa)
heavy: not shown
light: B2 light with I62V
notes: Antibody-cytokine fusion: human IL10 fused by a linker to the C-terminus of the heavy chain; also called 6M6.hu41/1L10
IC50 (M), inhibition of macrophage survival (CSF1-dependent) [8]: 1.84e-10 M

EC50 [1]: 112 pM
IC50 [2]: 1040 pM
EC50 [3]: 65.3 pM
B6: hy6M6 (antibody, V domains shown)
VH: DVQLQQSGTVLARPGASVKMSCKASGYTFTSYWIHWVKQRPGQGLEWIGAIYPGNRDTNYNQKFKGKAKLTTVTSASTAYMELSSLTNEDSAVYYCTGAFAGYYDWYFDVWGAGTTVTVSS
VL: DIVLTQSPASLAVSLGQRATISCKASQGVDYAGDSYMNWYQQKPGQPPKLLIYVASDLDSGIPARFSGSGSGTNFTLNIHPVEEEDAATYYCQQSYEDPRTFGGGTTLEIQ
notes: Mouse hybridoma antibody; also called anti-CSF1R antibody purified from hybridoma supernatant hy6M6
